Source: patent US20140221623A1 (Ablynx, published 2014)
Positions count from the first letter of the chain named. Where “and” joins values, the source holds several entries; their conditions need not be identical. Equal values may be shown once. Read-outs that look alike come from different tables or passages of the source. Blank lines part the entries; values can stand above or below the molecule they belong to.

Columns and labels:
IL6-R on U266 cells [1] = target: T1, IL6-R on U266 cells (human, UniProt P08887 20-468); test: cell-based or functional assay
T1 sequence (looked up): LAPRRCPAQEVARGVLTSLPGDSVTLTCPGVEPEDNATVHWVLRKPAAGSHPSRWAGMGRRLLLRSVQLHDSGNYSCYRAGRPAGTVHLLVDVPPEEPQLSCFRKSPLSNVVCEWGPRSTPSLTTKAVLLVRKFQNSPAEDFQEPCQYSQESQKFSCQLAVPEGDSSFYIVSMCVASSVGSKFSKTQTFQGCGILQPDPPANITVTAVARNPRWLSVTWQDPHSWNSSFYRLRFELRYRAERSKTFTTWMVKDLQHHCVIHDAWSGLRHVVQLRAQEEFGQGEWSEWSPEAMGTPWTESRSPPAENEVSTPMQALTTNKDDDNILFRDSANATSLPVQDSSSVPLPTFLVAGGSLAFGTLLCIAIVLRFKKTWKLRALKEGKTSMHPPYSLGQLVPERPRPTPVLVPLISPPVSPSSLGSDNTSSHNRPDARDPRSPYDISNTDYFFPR

IL6-R on U266 cells [2] = target: T1, IL6-R on U266 cells; test: cell-based or functional assay; remark: listed apart in the source
IL6-R on U266 cells [3] = target: T1, IL6-R on U266 cells; test: cell-based or functional assay; remark: listed apart in the source
Human soluble IL6-R [4] = target: T2, Human soluble IL6-R (human, UniProt P08887 20-358); test: SPR (Biacore), off-rate
T2 construct: Bought soluble receptor; biotinylated in some Alphascreen assays; also called sIL6-R; hIL-6R
T2 sequence (looked up): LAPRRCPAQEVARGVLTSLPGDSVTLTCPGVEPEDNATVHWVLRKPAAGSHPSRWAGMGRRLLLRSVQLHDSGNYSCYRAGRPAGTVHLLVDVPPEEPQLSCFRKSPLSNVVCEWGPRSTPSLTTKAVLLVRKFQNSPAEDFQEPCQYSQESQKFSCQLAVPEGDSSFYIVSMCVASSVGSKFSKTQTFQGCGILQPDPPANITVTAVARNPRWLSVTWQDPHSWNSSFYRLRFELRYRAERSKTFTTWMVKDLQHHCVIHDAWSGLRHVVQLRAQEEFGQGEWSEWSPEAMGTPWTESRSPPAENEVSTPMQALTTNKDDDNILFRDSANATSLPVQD

Human soluble IL6-R [5] = target: T2, Human soluble IL6-R; test: Alphascreen, 100 nM Nanobody; competitor Reference-Fab on beads
IL6-R on U266 cells [6] = target: T1, IL6-R on U266 cells; test: cell-based or functional assay; remark: listed apart in the source
Human soluble IL6-R [7] = target: T2, Human soluble IL6-R; test: SPR (Biacore 3000), IL6-R on CM5 chip
Human soluble IL6-R [8] = target: T2, Human soluble IL6-R; test: SPR (Biacore 3000), IL6-R on CM5 chip; remark: listed apart in the source
Human soluble IL6-R [9] = target: T2, Human soluble IL6-R; test: SPR (Biacore 3000), IL6-R on CM5 chip; row without label, read as kd
Human soluble IL6-R [10] = target: T2, Human soluble IL6-R; test: SPR (Biacore 3000), IL6-R on CM5 chip; remark: listed apart in the source

IC50, XG-1 proliferation (IL6-R on U266 cells [1]): 0.272 nM
Molecule: MAb BN-12 (antibody)

IC50 (+1% HSA), TF-1 proliferation (IL6-R on U266 cells [1]): 0.088
IC50 (w/o HSA), TF-1 proliferation (IL6-R on U266 cells [1]): 0.042
IC50, XG-1 proliferation (IL6-R on U266 cells [1]): 0.064 nM
Molecule: MAb BR-6 (antibody)

IC50, TF-1 proliferation (IL6-R on U266 cells [2]): 1.75 nM
IC50, XG-1 proliferation (IL6-R on U266 cells [3]): 0.603 nM
koff (Human soluble IL6-R [4]): 0.000114 s⁻¹
% binding retained in competition with Reference-Fab (Human soluble IL6-R [5]): 96%
IC50, XG-1 proliferation with 1 mg/mL human serum albumin (IL6-R on U266 cells [6]): 0.751 nM
Kd (Human soluble IL6-R [7]): 0.25 nM
koff (Human soluble IL6-R [7]): 0.0001 s⁻¹ and 0.000114 s⁻¹
kon (Human soluble IL6-R [7]): 402000 M⁻¹ s⁻¹
B3: IL6R14 (VHH)
VHH: EVQLVESGGGLVQPGGSLRLSCAASGFSLDYYAIGWFRQAPGKEREGVSCMDSSSGTTSTYYSDSVKGRFTISRDDAKNTVYLQMNSLKPEDTAVYYCAADGHLNWGQRYVPCSQISWRGWNDYWGQGTQVTVSS
notes: also called PMP40H5; PMP 40 H5

koff (Human soluble IL6-R [9]): 0.000213 s⁻¹
Kd (Human soluble IL6-R [10]): 0.9 nM
koff (Human soluble IL6-R [10]): 0.00031 s⁻¹
kon (Human soluble IL6-R [10]): 230000 M⁻¹ s⁻¹
B5: IL6R88 (VHH)
VHH: EVQLVESGGGLVQPGGSLRLSCAASGFTFDDYGMSWVRQAPGKGTEWVSAISWNGNNTYYTESMKGRFTISRDNAKNTLYLQMNSLRPEDTAVYYCVKGSTAIVGVPPTYPDEYDYWGQGTLVTVSS
notes: Humanized variant of IL6R13

Further lines, the molecule ahead of its results:

B1: IL6R09 (VHH)
VHH: EVQLVESGGGLVQAGGSLRLSCAASGRTSSSYDMTWYRQVPGKEREFVAVISWSGGSTYYADSVKGRFTISRDNAKNTVYLQMNSLKPEDTAIYYCNAYTGGGDDYWGQGTQVTVSS
notes: also called PMP34G9; PMP 34 G9
IC50, TF-1 proliferation (IL6-R on U266 cells [2]): 10 nM
IC50, XG-1 proliferation (IL6-R on U266 cells [3]): 2.75 nM
koff (Human soluble IL6-R [4]): 0.00139 s⁻¹
% binding retained in competition with Reference-Fab (Human soluble IL6-R [5]): 62%
IC50, XG-1 proliferation with 1 mg/mL human serum albumin (IL6-R on U266 cells [6]): 2.98 nM
Kd (Human soluble IL6-R [7]): 2.01 nM and 1.17 nM
koff (Human soluble IL6-R [7]): 0.0013 s⁻¹ and 0.00139 s⁻¹ and 0.00129 s⁻¹
kon (Human soluble IL6-R [7]): 641000 M⁻¹ s⁻¹ and 1.11e+06 M⁻¹ s⁻¹

B2: IL6R04 (VHH)
VHH: EVQLVESGGGLVQAGGSLRLSCAASGFTFDDYDIGWFRQAPGKEREGVSGISSSDGNTYYADSVKGRFTISSDNAKNTVYLQMNSLKPEDTAVYYCAAEPPDSSWYLDGSPEFFKYWGQGTQVTVSS
notes: also called PMP32C9; PMP 32 C9
IC50, TF-1 proliferation (IL6-R on U266 cells [2]): 0.545 nM
IC50, XG-1 proliferation (IL6-R on U266 cells [3]): 0.089 nM
koff (Human soluble IL6-R [4]): 0.00015 s⁻¹
% binding retained in competition with Reference-Fab (Human soluble IL6-R [5]): 50%
IC50, XG-1 proliferation with 1 mg/mL human serum albumin (IL6-R on U266 cells [6]): 0.099 nM
Kd (Human soluble IL6-R [7]): 0.26 nM
koff (Human soluble IL6-R [7]): 9.42e-05 s⁻¹ and 0.00015 s⁻¹
kon (Human soluble IL6-R [7]): 365000 M⁻¹ s⁻¹
Kd (Human soluble IL6-R [8]): 0.2 nM
koff (Human soluble IL6-R [8]): 0.000112 s⁻¹
kon (Human soluble IL6-R [8]): 536000 M⁻¹ s⁻¹

B4: IL6R13 (VHH)
VHH: B5 VHH with K43R, G44A, L79V, R87K, L122Q
notes: also called PMP35H4; PMP 35 H4
IC50, TF-1 proliferation (IL6-R on U266 cells [2]): 7.2 nM
IC50, XG-1 proliferation (IL6-R on U266 cells [3]): 1.4 nM
koff (Human soluble IL6-R [4]): 0.000178 s⁻¹
% binding retained in competition with Reference-Fab (Human soluble IL6-R [5]): 25%
IC50, XG-1 proliferation with 1 mg/mL human serum albumin (IL6-R on U266 cells [6]): 1.32 nM
Kd (Human soluble IL6-R [7]): 0.53 nM and 0.79 nM
koff (Human soluble IL6-R [7]): 0.000121 s⁻¹ and 0.000109 s⁻¹ and 0.000178 s⁻¹
kon (Human soluble IL6-R [7]): 231000 M⁻¹ s⁻¹ and 137000 M⁻¹ s⁻¹

B6: IL6R03 (VHH)
VHH: EVQLVESGGGLVQAGGSLRLSCAASGSIFKVNAMGWYRQAPGKQRELVAGIISGGSTNYADSVKGRLTISRDNAKNTVYLQMNSLKPEDTAVYYCSFVTTNSDYDLGRDYWGQGTQVTVSS
notes: also called PMP31A4; PMP 31 A4
IC50, TF-1 proliferation (IL6-R on U266 cells [2]): 28.1 nM
IC50, XG-1 proliferation (IL6-R on U266 cells [3]): 16.2 nM
koff (Human soluble IL6-R [4]): 0.0016 s⁻¹
% binding retained in competition with Reference-Fab (Human soluble IL6-R [5]): 5%
IC50, XG-1 proliferation with 1 mg/mL human serum albumin (IL6-R on U266 cells [6]): 17.5 nM
Kd (Human soluble IL6-R [7]): 3.03 nM
koff (Human soluble IL6-R [7]): 0.00147 s⁻¹ and 0.0016 s⁻¹
kon (Human soluble IL6-R [7]): 484000 M⁻¹ s⁻¹

B7: IL6R06 (VHH)
VHH: EVQLVESGGGLVQAGGSLRLSCAASGNIFDDNTMGWTWNRQPPGKQRELVAIIATDGSTNYADSVKGRFTISRDNAKNTVYLQMNSLKPEDTAVYYCNLFSLRLGRDYWGQGTQVTVSS
notes: also called PMP32E2; PMP 32 E2
IC50, TF-1 proliferation (IL6-R on U266 cells [2]): 77.2 nM
IC50, XG-1 proliferation (IL6-R on U266 cells [3]): 42 nM
koff (Human soluble IL6-R [4]): 0.000886 s⁻¹
% binding retained in competition with Reference-Fab (Human soluble IL6-R [5]): 36%
Kd (Human soluble IL6-R [7]): 7.1 nM
kon (Human soluble IL6-R [7]): 1.07e+06 M⁻¹ s⁻¹
